The target of assay [1] is lectin SNA1 from Sambucus nigra (Sambucus nigra) (UniProt Q41358).
The target of assay [2] is lectin MAA from Maackia amurensis (Maackia amurensis) (UniProt P0DKL3). Put plainly: solid-phase competition; fetuin against 100 pmoles of SVH1C on streptavidin for peroxidase-conjugated MAA.
Assay [3] has the same target. Put plainly: solid-phase competition; fetuin against SVH1C for MAA.
For assay [4], the target named is lectin SNA1 from Sambucus nigra (Sambucus nigra), Q41358. Put plainly: solid-phase assay, peptide titrated into wells containing bound lectin.
For assay [5], the target named is T1, lectin MAA from Maackia amurensis (Maackia amurensis), P0DKL3.
T1 chain: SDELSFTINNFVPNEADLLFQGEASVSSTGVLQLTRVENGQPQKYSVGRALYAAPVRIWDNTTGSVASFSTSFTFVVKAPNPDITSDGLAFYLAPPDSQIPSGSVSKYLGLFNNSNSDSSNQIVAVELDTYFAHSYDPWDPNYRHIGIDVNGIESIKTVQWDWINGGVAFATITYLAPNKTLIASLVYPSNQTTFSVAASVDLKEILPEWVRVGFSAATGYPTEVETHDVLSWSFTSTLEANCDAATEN
Described as above.

Where no end group is shown, it is not given here.

Chain of lectin SNA1 from Sambucus nigra (Sambucus nigra) (Q41358 29-289 limits assumed, chain 1 of 2): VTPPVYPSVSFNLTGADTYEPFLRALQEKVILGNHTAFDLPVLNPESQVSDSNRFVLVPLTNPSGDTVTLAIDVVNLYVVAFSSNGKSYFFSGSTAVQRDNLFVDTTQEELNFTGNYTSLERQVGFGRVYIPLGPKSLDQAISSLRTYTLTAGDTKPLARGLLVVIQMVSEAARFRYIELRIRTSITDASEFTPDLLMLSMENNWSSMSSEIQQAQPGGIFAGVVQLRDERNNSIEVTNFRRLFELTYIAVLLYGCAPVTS
Chain of lectin SNA1 from Sambucus nigra (Sambucus nigra) (Q41358 309-570 limits assumed, chain 2 of 2): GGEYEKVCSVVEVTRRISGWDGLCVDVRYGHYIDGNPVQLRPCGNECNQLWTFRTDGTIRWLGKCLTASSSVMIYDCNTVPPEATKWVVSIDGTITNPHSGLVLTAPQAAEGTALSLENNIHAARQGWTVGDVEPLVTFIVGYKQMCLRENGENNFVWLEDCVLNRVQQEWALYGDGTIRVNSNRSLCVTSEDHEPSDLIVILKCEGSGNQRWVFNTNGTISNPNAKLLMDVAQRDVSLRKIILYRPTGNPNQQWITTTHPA
Chain of lectin SNA1 from Sambucus nigra (Sambucus nigra), Q41358 (Q41358 29-289 limits assumed, chain 1 of 2): as the sequence (Q41358 29-289 limits assumed, chain 1 of 2) above
Chain of lectin SNA1 from Sambucus nigra (Sambucus nigra), Q41358 (Q41358 309-570 limits assumed, chain 2 of 2): as the sequence (Q41358 309-570 limits assumed, chain 2 of 2) above

In assay [1], fetuin (from UniProt P12763 19-359) had an amount of fetuin giving essentially complete inhibition (pmoles of fetuin per well) of 500 and a percent inhibition at 100 pmoles fetuin per well of 50%. In assay [2], this molecule gave an amount of fetuin giving essentially complete inhibition (pmoles of fetuin per well) of 500 and a percent inhibition at 100 pmoles fetuin per well of 50%. Besides, in assay [3], the percent inhibition at a 5-fold molar excess of fetuin over peptide was found to be 90%.

B1: biotinylated SVH1C (quadravalent, C-terminal ε-biotinyl-lysine amide) (peptide)
peptide: NPSHPLSGGGGS
chain: KKKK
modifications: not checked
Turning to B1, the amount of peptide at saturation in assay [4] and in assay [5] was 100 pmol throughout.

The record behind these values is patent publication US20150299252A1.
